Measured values: paper PMC6941992, “Polar recruitment of RLD by LAZY1-like protein during gravity signaling in root branch angle control” (Nature Communications, 2020)

Molecular target: T1, RLD2 BRX domain (residues 1006-1066) (Arabidopsis thaliana, UniProt F4K0X5 1006-1066)
T1 construct: HRV3C cleavage may leave vector residues at the N-terminus (surmised); source: E. coli BL21Star (DE3), purified (His-tag resin, HRV3C cleavage, gel filtration); for crystals co-expressed with LZY3 (274-287); not shown: His6, N-terminal, cleaved
T1 sequence (looked up): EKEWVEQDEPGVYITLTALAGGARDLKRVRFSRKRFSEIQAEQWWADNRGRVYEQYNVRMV
Experiment: ITC; iTC200, 20 °C; 20 mM Tris-HCl pH 8.0, 150 mM NaCl; 200 μM LZY3 (274-287) injected into 20 μM RLD2 BRX domain; 1:1 binding model
Conditions: both partners purified

Kd: 9.7 ± 2.2 nM | dH: -11.3 ± 0.09 kcal/mol | stoichiometry N: 0.73 ± 0.002
B1: LZY3 CCL peptide (residues 274-287) (peptide, UniProt Q5XVG3 274-287, looked up)
chain: KWVKTDSDFIVLEI
notes: LZY3 (LAZY1-LIKE 3), Arabidopsis thaliana, residues 274-287 (CCL domain); HRV3C cleavage may leave vector residues at the N-terminus (surmised); also called CCL β-hairpin; source: E. coli BL21Star (DE3), purified (glutathione sepharose, HRV3C cleavage, gel filtration, reverse phase); for crystals co-expressed with RLD2; not shown: GST, N-terminal, cleaved
